B1: Mitochondrial import inner membrane translocase subunit TIM50 (Saccharomyces cerevisiae), Q02776 (parent)
chain: MLSILRNSVRLNSRALRVVPSAANTLTSVQASRRLLTSYSSFLQKETKDDKPKSILTDDMLFKAGVDVDEKGQGKNEETSGEGGEDKNEPSSKSEKSRRKRQTSTDIKREKYANWFYIFSLSALTGTAIYMARDWEPQESEELKKDIDNGYTLSLMYKRFKARFNSMFTYFQEPPFPDLLPPPPPPPYQRPLTLVITLEDFLVHSEWSQKHGWRTAKRPGADYFLGYLSQYYEIVLFSSNYMMYSDKIAEKLDPIHAFVSYNLFKEHCVYKDGVHIKDLSKLNRDLSKVIIIDTDPNSYKLQPENAIPMEPWNGEADDKLVRLIPFLEYLATQQTKDVRPILNSFEDKKNLAEEFDHRVKKLKDKFYGDHKSGGNWAMTALGLGNSLGGSTKFPLDLIHEEGQKNYLMFMKMIEEEKEKIRIQQEQMGGQTFTLKDYVEGNLPSPEEQMKIQLEKQKEVDALFEEEKKKKKIAESK
B2: ATP synthase subunit 9, mitochondrial (Neurospora crassa (strain ATCC 24698 / 74-OR23-1A / CBS 708.71 / DSM 1257 / FGSC 987)), P00842 (parent)
chain: MASTRVLASRLASQMAASAKVARPAVRVAQVSKRTIQTGSPLQTLKRTQMTSIVNATTRQAFQKRAYSSEIAQAMVEVSKNLGMGSAAIGLTGAGIGIGLVFAALLNGVARNPALRGQLFSYAILGFAFVEAIGLFDLMVALMAKFT
partner: B1 chain

Variants of: B1
Conditions: with atp9_neucr oli

effect of a mutation on the interaction | Variant
decreasing interaction | L434N

Variants of: B1
Conditions: with atp9_neucr oli
Remark: another data set of the same source

effect of a mutation on the interaction | Variant
decreasing interaction | E415A

Variants of: B1
Conditions: with atp9_neucr oli
Remark: another data set of the same source

effect of a mutation on the interaction | Variant
disrupting interaction | I413A;D436A

Variants of: B1
Conditions: with atp9_neucr oli
Remark: another data set of the same source

effect of a mutation on the interaction | Variant
decreasing interaction | E414A

Variants of: B2
Conditions: with tim50_yeast TIM50, Q02776

effect of a mutation on the interaction | Variant
disrupting interaction | L7Q;A12Q;A16Q;A17Q

Reference: IntAct's records for PubMed 24462684
